What is called Kd is the free concentration of one partner at which half of the binding sites on the other are occupied at equilibrium, for simple one-to-one binding. Higher therefore signals a looser complex.

Holding throughout (experiment): SPR
(Surface plasmon resonance follows binding to a sensor surface in real time, without labels.)

Test [1] addresses N-terminal human PrP fragment (PrP23–145) (human) (UniProt P04156).
The target of test [2] is N-terminally truncated human PrP90–231 (human) (UniProt P04156).
For test [3], the target named is N-terminally truncated PrP (PrP89–230) (mouse) (UniProt P04925).
The target in test [4] is full-length PrP (PrP23–231) (mouse) (UniProt P04925).

As for “Quiescin-sulfhydryl oxidase (from UniProt O00391 30-747) (enzyme)”, the Kd in test [1] was found to be 3.6 nM; in test [2], 771 nM; in test [3] it was 312 nM; in test [4], 2 nM.
